In the Immune Epitope Database (IEDB):
Each block holds one sequence with its values, some of them ahead of it.

Experiments:
HLA-B*48:01 = assay: IEDB peptide-MHC binding, purified MHC/competitive/fluorescence; filed as Kd, often an IC50 or EC50 that approximates it; ≥ and ≤ were set here for values at or beyond the usual limits of such assays; settings: source organism: Mycobacterium tuberculosis variant bovis BCG str. Pasteur 1173P2
HLA-B*35:01 = assay: as above; settings: source organism: Acinetobacter baumannii
HLA-B*27:05 = assay: as above; settings: source organism: Acinetobacter baumannii
HLA-A*02:01 [1] = assay: as above
HLA-A*26:01 [2] = assay: as above; settings: source organism: Acinetobacter baumannii
HLA-A*24:02 = assay: as above
HLA-B*18:01 [3] = assay: as above; settings: source organism: Acinetobacter baumannii
HLA-B*08:01 = assay: as above; settings: source organism: Acinetobacter baumannii
HLA-A*11:01 = assay: as above; settings: source organism: Acinetobacter baumannii
HLA-A*69:01 [4] = assay: as above; settings: source organism: Acinetobacter baumannii
HLA-A*01:01 = assay: as above; settings: source organism: Acinetobacter baumannii
HLA-B*07:02 = assay: as above; settings: source organism: Acinetobacter baumannii
HLA-B*58:01 = assay: as above; settings: source organism: Acinetobacter baumannii
HLA-B*40:01 = assay: as above
HLA-A*31:01 = assay: as above; settings: source organism: Acinetobacter baumannii
HLA-B*15:01 [5] = assay: as above; settings: source organism: Acinetobacter baumannii
HLA-A*03:01 [6] = assay: as above; settings: source organism: Acinetobacter baumannii
HLA-A*02:01 [7] = assay: IEDB peptide-MHC binding, purified MHC/direct/fluorescence; filed as Kd, often an IC50 or EC50 that approximates it; ≥ and ≤ were set here for values at or beyond the usual limits of such assays
HLA-A*26:01 [8] = assay: as above
HLA-A*02:11 = assay: as above
HLA-B*18:01 [9] = assay: as above
HLA-B*39:01 = assay: as above
HLA-B*57:01 = assay: as above; settings: source organism: Mycobacterium tuberculosis str. Haarlem
HLA-B*51:01 = assay: as above
HLA-B*27:03 = assay: as above
HLA-A*02:16 = assay: as above
HLA-A*02:12 = assay: as above
HLA-B*46:01 = assay: as above
HLA-A*02:19 = assay: as above
HLA-A*03:01 [10] = assay: as above
HLA-A*02:03 = assay: as above; settings: source organism: Burkholderia mallei ATCC 23344
HLA-A*69:01 [11] = assay: as above; settings: source organism: Burkholderia mallei ATCC 23344
HLA-B*15:01 [12] = assay: as above; settings: source organism: Burkholderia mallei ATCC 23344
HLA-A*68:02 = assay: as above; settings: source organism: Burkholderia mallei ATCC 23344
HLA-A*24:03 = assay: as above; settings: source organism: Burkholderia mallei ATCC 23344
HLA-B*15:42 = assay: IEDB peptide-MHC binding, purified MHC/competitive/fluorescence; filed as Kd, often an IC50 or EC50 that approximates it; ≥ and ≤ were set here for values at or beyond the usual limits of such assays; settings: source organism: Shigella flexneri 5 str. 8401
HLA-A*32:15 = assay: as above; settings: source organism: Shigella flexneri 5 str. 8401
HLA-B*40:13 = assay: as above; settings: source organism: Shigella flexneri 5 str. 8401
HLA-B*83:01 = assay: as above; settings: source organism: Shigella flexneri 5 str. 8401
HLA-B*45:06 = assay: as above; settings: source organism: Shigella flexneri 5 str. 8401
HLA-A*68:23 = assay: as above; settings: source organism: Shigella flexneri 5 str. 8401
[13] = source organism: Acinetobacter baumannii
[14] = source organism: Mycobacterium tuberculosis str. Haarlem
[15] = source organism: Burkholderia mallei ATCC 23344
[16] = source organism: Salmonella enterica subsp. enterica serovar Typhi

Sequence: RMVIGGVAL
- Kd (HLA-B*48:01): 0.0681 µM

- Kd (HLA-B*35:01): ≥ 20 µM
- Kd (HLA-B*27:05): ≥ 20 µM
- Kd (HLA-A*02:01 [1]; [13]): ≥ 20 µM
- Kd (HLA-A*26:01 [2]): ≥ 20 µM
- Kd (HLA-A*24:02; [13]): ≥ 20 µM
- Kd (HLA-B*18:01 [3]): ≥ 20 µM
- Kd (HLA-B*08:01): ≥ 20 µM
- Kd (HLA-A*11:01): 0.015 µM
- Kd (HLA-A*69:01 [4]): ≥ 20 µM
- Kd (HLA-A*01:01): ≥ 20 µM
- Kd (HLA-B*07:02): ≥ 20 µM
- Kd (HLA-B*58:01): ≥ 20 µM
- Kd (HLA-B*40:01; [13]): ≥ 20 µM
- Kd (HLA-A*31:01): 0.0344 µM
- Kd (HLA-B*15:01 [5]): ≥ 20 µM
- Kd (HLA-A*03:01 [6]): 0.0385 µM
Sequence: SIYAGNTPK

Sequence: RLGWRTLDF
- Kd (HLA-A*02:01 [7]; [14]): ≥ 20 µM
- Kd (HLA-A*26:01 [8]; [14]): ≥ 20 µM
- Kd (HLA-A*02:11; [14]): ≥ 20 µM
- Kd (HLA-B*18:01 [9]; [14]): ≥ 20 µM
- Kd (HLA-B*39:01; [14]): ≥ 20 µM
- Kd (HLA-B*57:01): ≥ 20 µM
- Kd (HLA-B*51:01; [14]): ≥ 20 µM
- Kd (HLA-B*27:03; [14]): ≥ 20 µM
- Kd (HLA-A*02:16; [14]): ≥ 20 µM
- Kd (HLA-A*02:12; [14]): ≥ 20 µM
- Kd (HLA-B*46:01; [14]): ≥ 20 µM
- Kd (HLA-A*02:19; [14]): ≥ 20 µM
- Kd (HLA-A*03:01 [10]; [14]): ≥ 20 µM

Sequence: LARFPCNVI
- Kd (HLA-A*02:03): ≥ 20 µM
- Kd (HLA-A*02:01 [7]; [15]): ≥ 20 µM
- Kd (HLA-A*26:01 [8]; [15]): ≥ 20 µM
- Kd (HLA-A*02:11; [15]): ≥ 20 µM
- Kd (HLA-B*18:01 [9]; [15]): ≥ 20 µM
- Kd (HLA-B*39:01; [15]): ≥ 20 µM
- Kd (HLA-B*51:01; [15]): 0.606 µM
- Kd (HLA-B*27:03; [15]): ≥ 20 µM
- Kd (HLA-A*69:01 [11]): ≥ 20 µM
- Kd (HLA-A*02:16; [15]): ≥ 20 µM
- Kd (HLA-A*02:12; [15]): ≥ 20 µM
- Kd (HLA-B*46:01; [15]): ≥ 20 µM
- Kd (HLA-A*02:19; [15]): ≥ 20 µM
- Kd (HLA-B*15:01 [12]): ≥ 20 µM
- Kd (HLA-A*68:02): ≥ 20 µM
- Kd (HLA-A*24:03): ≥ 20 µM
- Kd (HLA-A*03:01 [10]; [15]): ≥ 20 µM

Sequence: TLMFGFFGF
- Kd (HLA-A*02:01 [1]; [16]): 4 µM
- Kd (HLA-A*24:02; [16]): ≥ 5 µM

Sequence: HEWKIPLLI
- Kd (HLA-B*15:42): ≥ 5 µM
- Kd (HLA-A*32:15): 2.61 µM
- Kd (HLA-B*40:13): 0.0109 µM
- Kd (HLA-B*83:01): 10.5 µM
- Kd (HLA-B*45:06): ≥ 5 µM
- Kd (HLA-B*40:01; source organism: Shigella flexneri 5 str. 8401): 0.0097 µM
- Kd (HLA-A*68:23): 0.278 µM
